{"source": "paper PMC8168016", "key": {"[1]": {"biological_target": "AncSR1-LBD 184E (dimerization-interface mutant with a non-historical charge-repulsion mutation)", "assay": "native MS"}, "[2]": {"biological_target": "AncSR1-LBD L180F/A181Y/M185K (dimerization-interface mutant with three historical substitutions)", "assay": "native MS"}, "[3]": {"biological_target": "AncSR1-LBD fused to the CTE of AncSR2-LBD", "assay": "SEC-MALS"}}, "data": [{"substance": "AncSR1-LBD 184E (dimerization-interface mutant with a non-historical charge-repulsion mutation) (domain or fragment)", "values": [{"measurement": "fold increase of Kd against AncSR1-LBD", "setting": "[1]", "value": "> 20", "unit": "fold"}]}, {"substance": "AncSR1-LBD L180F/A181Y/M185K (dimerization-interface mutant with three historical substitutions) (domain or fragment)", "values": [{"measurement": "fold increase of Kd against AncSR1-LBD", "setting": "[2]", "value": "> 20", "unit": "fold"}]}, {"substance": "AncSR1-LBD fused to the CTE of AncSR2-LBD (domain or fragment)", "values": [{"measurement": "stoichiometry N", "setting": "[3]", "value": 2}]}]}
